This is an account of results in PMC10254243.

The term stoichiometry N denotes the number of molecules, sites or subunits per partner or assembly.

The target in assay [1] is 5-enolpyruvylshikimate-3-phosphate synthase (EPSPS) from Agrobacterium sp. strain CP4 (CP4-EPSPS) (Agrobacterium sp. strain CP4) (UniProt Q9R4E4). As to the kind of experiment: SEC; Enrich SEC 650 column on FPLC, PBS pH 7.2, 25 °C, 0.5 mL/min, calibrated with Gel Filtration Standard; after Ni-NTA affinity chromatography. Background: SEC sorts molecules by how far they enter the pores of the column.

For assay [2] the target is unchanged. As to the kind of experiment: native gel or EMSA; native-PAGE of the purified CP4-EPSPS protein (10 μg).

Consider “5-enolpyruvylshikimate-3-phosphate synthase (EPSPS) from Agrobacterium sp. strain CP4 (CP4-EPSPS) (from UniProt Q9R4E4 1-455) (enzyme)”, for which the stoichiometry N in assay [1] and in assay [2] was 2 in each case.
